# From the supplement of paper PMC9170038
# System: MS2 coat protein
# Experiment: apparent KD of MS2 coat protein; designed switch direction (-1 OFF switch, 1 ON switch): 1; higher = weaker reporter binding
# Procedure, shortened: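 For each design, the apparent KD is the median over clusters of curves fitted to normalised cluster fluorescence. Clusters held RNA switches with common flanks, transcribed on Illumina chips by stalled E. coli RNA polymerase. These were titrated with SNAP-549-labelled MS2 coat protein, doubling from 0.7 or 1.5 nM to 3 µM, without input, with 200 uM small-molecule ligand, or with an oligonucleotide input.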
# [1] = Eterna round: R95, input ligand: FMN 200 uM
# [2] = Eterna round: R95, input ligand: microRNA oligo, concentration not stated
# [3] = Eterna round: R95, input ligand: none
# [4] = input ligand: microRNA oligo, concentration not stated
Sequence,apparent KD of MS2 coat protein [1] [µM],apparent KD of MS2 coat protein [2] [µM],apparent KD of MS2 coat protein [3] [µM],apparent KD of MS2 coat protein [4] [µM],apparent KD of MS2 coat protein (input ligand: FMN 200 uM) [µM],apparent KD of MS2 coat protein (input ligand: none) [µM]
AAAAAACAUGAGGAUCACCCAUGUCAAAAGACAUGAGGAUAUGUGCAAAUAAAAUAAGAAACAGAAGGCAUGAAAA [salish99_ss1_r3_102] (puzzle: Same State 1),0.0691,0.21,0.229,–,–,–
"AACAAUCUAUCUGAGGAUAUUAUGAAAUAAACAUGAGGAUCACCCAUGUGCAGGAAAACUGCAUAUGAGAAGGCAGAUAGAUUGA [salish99_ss2_r3_027] (Eterna round: R96, puzzle: Same State 2)",–,–,–,0.274,–,–
"UGAAUAGUUACAGGAUAUGAGCCGUAAAUUGGGUCAGAAGGGUGGGUGUUUUGCGCUGUGUGUUACAUGAGGAUCACCCAUGUU [SameState NG1 #32] (Eterna round: R96, puzzle: Same State NG 1)",–,–,–,0.0867,0.206,0.137
"AAAAGAAACAUGUACCUGAGUACAUGAAAACAUGAGGAUCACCCAUGUAAUAAGCGGGUGGCUCGUCUUAUAAGAAA [JL pocket 27] (Eterna round: R96, puzzle: Sensor for hsa-mir-208a)",–,–,–,0.0704,0.89,0.715
UUAAGCAACGGGCAGGAUAUGUAUUAAAAUACAUGAGGAUCACCCAUGUGCAGGUGUAACACCUGACAGAAGGGCCAAUCGCUGC [Soteed - 7] (puzzle: Same State 2),0.0638,0.531,0.9,–,–,–
"AAUCCUGUCACAGGAUAUCCGAGGGCAACCCUCGGAGAAGGGUGAUAGUCUAACAAACACACACAUGAGGAUCACCCAUGUUAA [Sogece] (Eterna round: R96, puzzle: Same State NG 1)",–,–,–,0.113,0.0769,0.133
AGUAUACAUGAGGAUCACCCAUGUCAACGUAGUCGAGGAUAUGGGCAGCCGUGAGGCGUACUAGAAGGCGAAGAGA [Mat - Same State 1 - Mod of JL - D7] (puzzle: Same State 1),0.0489,0.135,0.101,–,–,–
"GUUACAUGAGGAUCACCCAUGUAUGUGUGGGAGUAAGUGUCUUAGGAUAUCUGUAAUUUAAUUUAAGAGAAGGAAGAUUGUUGU [JMF's solution 31] (Eterna round: R96, puzzle: Same State NG 3)",–,–,–,0.0945,0.128,0.121
"GUGGUCAGACAUGAGGAUCACCCAUGUGGAAUAAAUAACGUACAGGAUAUGCAAUAUAGGAUAUAGUAGAAGGGUAGAUUGGUG (Eterna round: R96, puzzle: Same State NG 3)",–,–,–,0.095,0.116,0.123
AGCGAGAUAGGCAAGGAUAUGCUGAGGUGCACAUGAGGAUCACCCAUGUCAGUGGCGAAAGCGAAGCAGAAGGUGCAUUCUCUUU [ak fifth] (puzzle: Same State 2),0.0271,0.19,0.332,–,–,–
"UAGUGCAUUAGAGGAUAUUCUUACGAAAACGUAAAGACAUGAGGAUCACCCAUGUUGUCACAUGGGAAGAAGGCUGAUGUGCUA [Omei SS(NG)2 Bv3] (Eterna round: R96, puzzle: Same State NG 2)",–,–,–,0.117,0.0263,0.147
"AUAAGAAACACAGGAUAUACCGUGCUUAACGCGGUAGAAGGGUGGGACAUGAGGAUCACCCAUGUGGUCCGGGCGCCGGACCGC [Erarlaa] (Eterna round: R96, puzzle: Same State NG 1)",–,–,–,0.296,0.934,0.309
"AAAGGAUGAUGUUACAUGAGGAUCACCCAUGUAGUGAUAACUAAGGAUAUCUGUUAAAUUAAUUAAGAGAAGGUAGGAUCAUUA [AK SSNG3-V2-8.1] (Eterna round: R96, puzzle: Same State NG 3)",–,–,–,0.0458,0.0435,0.0532
"UGUUGUAUUACAGGAUAUCUAUUAGUUUUUUUUAGAGAAGGGUAUUCACAUGAGGAUCACCCAUGUAUAUACGAGGAAGUUGUG [JMF's solution 96] (Eterna round: R96, puzzle: Same State NG 1)",–,–,–,0.0368,–,–
"CCAUAGUACAAUUUAGAUCUACAUGAGGAUCACCCAUGUACUGAGGAUAUCAGCUCGAAUAGAGCUGAGAAGGCAGAAGUACUU [SSNG3/6-A1] (Eterna round: R96, puzzle: Same State NG 3)",–,–,–,0.101,0.0226,0.0836
"UCUUGGUUUUUGCUCGUUUUUUGUGUUGAACAUGAGGAUCACCCAUGUAUUGUACGGUCCGGUUUAGUAGUGGUCCA [JMF 44] (Eterna round: R96, puzzle: Sensor for hsa-mir-208a)",–,–,–,0.0818,0.181,0.173
